# Results published in the RNAGym collection of RNA variant scans (doi:10.1073/pnas.2313332121).
# This sample holds only a part of the variants without activity.
# B1: TPR 5TU (parent)
# chain: GGAUCUUCUCGAUCUAACAAAAAAGACAAAUCUGCCACAAAGCUUGAGAGCAUCUUCGGAUGCAGAGGCGGCAGCCUUCGGUGGCGCGAUAGCGCCAACGUUCUCAACUAUGACACGCAAAACGCGUGCUCCGUUGAAUGGAGUUUAUCAUG
# Variants of: B1
# Assay: polymerase ribozyme fitness, log enrichment relative to wild type (log ratio); higher = more active; in vitro selection for triplet polymerase activity
# Outline: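 Fitness is a logarithmic measure of how a genotype enriched relative to the wild type, with replicate averages weighted by inverse variance. The logarithm uses base 2, and enrichment came from Illumina sequencing of input and output libraries. Those libraries were PCR-built, transcribed mutants of each subunit of a heterodimeric triplet polymerase ribozyme, passed through one triplicate in vitro selection round that included frozen incubation at −7 °C, gel excision of extended constructs and streptavidin-bead capture. Genotypes were kept only if they had ≥10 input reads and ≥1 read per output.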
row,Variant,polymerase ribozyme fitness (log ratio)
1,GGAUCUUCUCGAUCUAACAAAAAAGACAAAUCUGCCACAAAGCUUGAGAGCAUAUUCGGAUGCAGAGGCGGCAGCCUUCGGUGGCGCGAUAGCGCCAACGUUCUCAACUAUGACACGCAAAACGCGUGCUCCGUUGAAUGGAGUUUAUCGUG [C54A A150G],-3.37
2,GGAUCUUCUCGAUCUAACAAAAAAGACAAAUCUGCCACAAAGCUUGAGAGCAUAUUAGGAUGCAGAGGCGGCAGCCUUCGGUGGCGAGGUAGCGCCAACGUUCUCAACUAUGACACGCAAAACGCGUGCUCCGUUGAAUGGAGUUUAUCAUG [C54A C57A C87A A89G],≤ -4.2
3,GGAUCUUCUCGAUCUAACAAAAAAGACAAAUCUGCCACAAAGCUUGAGAGCAGCUUCGGAUGCAGAGGCGGCAGCCUUCGGUGACGCGAUAGCGCCAACGUUCUCAACUAUGACACGCAAAACGCGUGCUCCGUUGAAUGGAGUUUAUCAUG [U53G G84A],-2.52
4,GGAUCUUCUCGAUCUAACAAAAAAGACAAAUCUGCCACAAAGCUUGAGAGCAUAUUCGGAUGCAGAGGCGGCAGCGUUCGGUGGCGCGUUAUCGCCAACGUUCUCAACUAUGACACGCAAAACGCGUGCGCCGUUGAAUGGAGUUUAUAAAG [C54A C76G A89U G92U U130G C149A U151A],≤ -4.2
5,GGAUCUUCUCGAUCUAACAAAAAAGACAAAUCUGCCACAAAGCUUGAGAGCAUAUUCGGAUGCAGGGGCGGCAGCCUUCGGUGGCGCGAUGGCGGCAACGUUCUCAACUAUGACACGCAAAACGCGUGCUCCGUUGAAUGAAUUUCAUCAUG [C54A A66G A91G C95G G141A G143U U146C],≤ -4.2
6,GGAUCUUCUCGAUCUAACAAAAAAGACAAAUCUGCCACAAAGCUUGAGAGCAUAUUUGUAUGCAGAGGCGGCAGCCUUCGGUGGCGCGAUAGCGCCAACGUUCUCAACUAUGACACGCAAAACGCGUGCUCCGUUGAAUGGAGUUUAUCAUG [C54A C57U G59U],-0.27
7,GGAUCUUCUCGAUCUAACAAAAAAGACAAAUCUGCCACAAAGCUUGAGAGCAUAUUCGGAUGCAGAGGCGGCAGCCUUCGGUGGCGCGAUUGCGCCAACAUUCUCAACUAUGACACGCAAAACGCGUGCUCCGUUGAAUGCAGUUUAUCAUG [C54A A91U G100A G141C],≤ -4.2
8,GGAUCUUCUCGAUCUAACAAAAAAGACAAAUCUGCCACAAAGCUUGAGAGCAGCUUCGGAUGCAGAGGCGGCAGCCUUCGGUGGCGCGAUAGCCCCAACGUUCUCAACUAUGACUCGCAAAACGCGUGCUCCGUUGAAUGGAGUUUAUCAUG [U53G G94C A115U],-3.49
9,GGAUCUUCUCGAUCUAACAAAAAAGACAAAUCUGCCACAAAGCUUGAGAGCAUAUUGGGAUGCAGAGGCGGCAGCCUUCGGUGGCGCGAUAGCGCCAACGUUCUCAACUAUGACACGCAAAACGCGUGCUCCGUUGAAUGGAGUUUAUCAUG [C54A C57G],-3
10,GGAUCUUCUCGAUCUAACAAAAAAGACAAAUCUGCCACAAAGCUUGAGAGCAUAUUCGGAUGCAGAGGCGGCAGCCUUCGGUGGGGCGAUAGCGCCAACGUGCUCAACUAUGACACGCAAAACGCGUGCUCCGUUGAAUGGAGUUUAUCAUG [C54A C85G U102G],≤ -4.2
11,GGAUCUUCUCGAUCUAACAAAAAAGACAAAUCUGCCACAAAGCUUGAGAGCAUAUUCGGAUGCAGAGGCGGCAGCCUUUGGUGGCGCGAUAGAGCCAACGUUCUCAACUAUGUCACGCAAAACGCGGGCUCCGUUGAAUGGAGUUUAUCAUG [C54A C79U C93A A113U U127G],≤ -4.2
12,GGAUCUUCUCGAUCUAACAAAAAAGACAAAUCUGCCACAAAGCUUGAGAGCAUAUUCGGAUGCAGAGGCGGCAGCCUUCGGUGGCGCGAUUGCGCCAACGUUCUCAACUAUGACACGCAAAACGCGUGCUCCGUUGAAUGGAGUUUAUCAUG [C54A A91U],≤ -4.2
13,GGAUCUUCUCGAUCUAACAAAAAAGACAAAUCUGCCACAAAGCUUGAGAGCAUAUUCGGAUGCAGAGGCGGCAGCCUUCGGUGGCGCGAUGGCGCCAACGUUCUCAACUAUGACACGCAAAACGCGUGCUCCGUUGAAUGGAGUUUAUCAUG [C54A A91G],-3.97
14,GGAUCUUCUCGAUCUAACAAAAAAGACAAAUCUGCCACAAAGCUUGAGAGCAUAUUCGGAUGCAGAGGUGGCAGCCUUCGGUGGCGCGAUAGCGCCAACGUUCUCAACUAUGACACGCAAAACGCGUGCUCCGUUGAAUGGAGUUUAUCAUG [C54A C69U],-4.12
15,GGAUCUUCUCGAUCUAACAAAAAAGACAAAUCUGCCACAAAGCUUGAGAGCAGCUUCGGAUGCAGAGGCGGCAGCCUUCGGUGGCGCGAUAUCGCCAACGUUCUCAACUAUGACACGCAAAACGCGUGCUCCGUUGAAUGGAUAUUAUCAUG [U53G G92U G143U U144A],-3.84
16,GGAUCUUCUCGAUCUAACAAAAAAGACAAAUCUGCCACAAAGCUUGAGAGCAUAUUCGGAUGCGGAGGCGGCAGCCUUCGGUGGCGCGAUAGCGCCAACGUUCUCAACUACGACACGCAAAACGCGUGCUCCUUUGAAUAGAAUUUAUCAUG [C54A A64G U111C G133U G140A G143A],≤ -4.2
17,GGAUCUUCUCGAUCUAACAAAAAAGACAAAUCUGCCACAAAGCUUGAGAGCAGCUUCGGAUGCAGAGGCGGCAGCCUUCGGUGUCGCGAUAGCGCGAACGUUCUCAACUAUGACACGCAAAACGCGUGCUCCGUUGAAUGGAGUUUAUCAUG [U53G G84U C96G],≤ -4.2
18,GGAUCUUCUCGAUCUAACAAAAAAGACAAAUCUGCCACAAAGCUUGAGAGCAGCUACGGAUGCAGAGGCGGCAGCCUUCGGUGGCGCGAUAGCCCCAACGUUCUCAACUAUGACCCGCAAAAGGCGUGCUCCGUUGAAUGGAGUUUAUCAUG [U53G U56A G94C A115C C123G],-3.89
19,GGAUCUUCUCGAUCUAACAAAAAAGACAAAUCUGCCACAAAGCUUGAGAGCAGCUUCGGAUGCAGAGGCGGCAGCCGUCGGUGGCGCGAUAGCGCCAACGUUCUCAACUAUGACACGCAAAACGCGUGAUCCGUUGAAUGGAGUUUCUCAUG [U53G U77G C129A A147C],≤ -4.2

row,Variant,polymerase ribozyme fitness (log ratio)
1,GGAUCUUCUCGAUCUAACAAAAAAGACAAAUCUGCCACAAAGCUUGAGAGCAGCUUCGGAUGCAGAGGCGGCAGCCUUCGGUGGCGCGAUAGCUCCACCGUUCUCAACUAUGACACGCAAAACGCGUGCUCCGUUGAAUGGAGUUUAUCAUG [U53G G94U A98C],-2.12
2,GGAUCUUCUCGAUCUAACAAAAAAGACAAAUCUGCCACAAAGCUUGAGAGCAGCUUCGGAUGCAGAGGCGGCAGCCUUCGGUGGCGCGAUAGCGCCAACGUUCUCAACUAUGACACCCAAAACGCGUGCUCCGUUGGAUGGAGUUUAUCAUG [U53G G117C A137G],-2.86
3,GGAUCUUCUCGAUCUAACAAAAAAGACAAAUCUGCCACAAAGCUUGAGAGCAGCUUCGGAUGCAGAGGCGGCAGCCUUCGGUGGCGCGAGAGCGCCAACAUUCUCAACUAUGACACGCAAAACACGUGCUCCGUUGAAUGGAGCUUAUCAUG [U53G U90G G100A G124A U144C],≤ -4.2
4,GGAUCUUCUCGAUCUAACAAAAAAGACAAAUCUGCCACAAAGCUUGAGAGCAGCAUCGGAUGCAGAGGCGGCAGCCUUUGGUGGCACAAUAGCGCCAACGUUUUCAACUAUGACACGCAAAACGCGUGCUCCGUUGAAUGGAGUUUACCAUG [U53G U55A C79U G86A G88A C103U U148C],≤ -4.2
5,GGAUCUUCUCGAUCUAACAAAAAAGACAAAUCUGCCACAAAGCUUGAGAGCAUAUUCGGAUGCAGAGGCGGCAGCCUUCGGUGGGGCGAUAGCGGCAACGUUCUCAACUAUGAAACGCAAAACGCGUGCUCCGGUGAAUGGAGUUUAUCAUG [C54A C85G C95G C114A U134G],≤ -4.2
6,GGAUCUUCUCGAUCUAACAAAAAAGACAAAUCUGCCACAAAGCUUGAGAGCAUAUUCGGAUGCAGAGGCGGCAGCCUUCGGUGGAGCGAUAGCGCCAACGUUCUAAACUAUGACACGCAAAACGCGUGCUCCGUUGAAUGGAGUUUAUCAUG [C54A C85A C105A],≤ -4.2
7,GGAUCUUCUCGAUCUAACAAAAAAGACAAAUCUGCCACAAAGCUUGAGAGCAUAUUCGGAUGCAGAGGCGGCAGCCUUCGGUGGCGCGAUAGCGCCAACGUUCUCCACUAUGACACGCAAAACGCGUGCUCCGUUGAAUGGAGUUUAUCAUG [C54A A106C],-2.06
8,GGAUCUUCUCGAUCUAACAAAAAAGACAAAUCUGCCACAAAGCUUGAGAGCAUAUUCGGAUGCAGAGGUGGCAGCCUUCGGUGGCGCGAUAGCGCCAACGUUCUCAACUAUGACACGCAAAACGCGUGCUCCGUUGAAUGGAGCUUAUCAUG [C54A C69U U144C],-3.51
9,GGAUCUUCUCGAUCUAACAAAAAAGACAAAUCUGCCACAAAGCUUGAGAGCAGCUUCGGAUGCAGAGGCGGCAGCCUUCGGUGGCGCGAUAGCGCCAACGUUCUCAACUAUGACACGCAAAACGCGUGCUCCGUCGAAUGGAGUUUAUCAUG [U53G U135C],-3.23
10,GGAUCUUCUCGAUCUAACAAAAAAGACAAAUCUGCCACAAAGCUUGAGAGCAGCAUCGGAUGCAGAGGCGGCAGCCUACGGUGGCGCGAUAGUGCCAACGUUCUCAACUAUGACACGCAAAACGCGUGCUCCGUUGAAUGGCGUUUACCAUG [U53G U55A U78A C93U A142C U148C],≤ -4.2
11,GGAUCUUCUCGAUCUAACAAAAAAGACAAAUCUGCCACAAAGCUUGAGAGCAUAUUCGGAUGCAGAGGCGGCAGCCUUCGGUGGCGCGAUAGCGCCAACGUUCUCAACUAUGACACGCAAAACGCGUGCUCCGUUGAAUGGAGUUUAUCAUG [C54A],-1.06
12,GGAUCUUCUCGAUCUAACAAAAAAGACAAAUCUGCCACAAAGCUUGAGAGCAUAUUCGGAUGCAGAGGCGGCAGCCUUCGGUGGCGCGUUACCGCCAACGUUCUCAACUAUGACACGCAAUACGCGUGCUCCGUUGAAUGGAGUUUAUCAUG [C54A A89U G92C A121U],-3
13,GGAUCUUCUCGAUCUAACAAAAAAGACAAAUCUGCCACAAAGCUUGAGAGCAUAUUCGGAUGCAGAGGCGGCAGCCUUAGGUGGCGCGAUAGCGCCAACAUUCUCAACUAUGACACGCAAAACGCGUGCUCCGUUGAAUGGAGUUUAUCAUG [C54A C79A G100A],≤ -4.2
14,GGAUCUUCUCGAUCUAACAAAAAAGACAAAUCUGCCACAAAGCUUGAGAGCAUAUUCGGAUGCAGAGGCGGCAGCCUUCGGUGGCGCGAUAGCGCCUACGUUCUCAACUAUGACACGCAAAACGCGUGCUCCGUUGAAUGGAGUUUAUCAUG [C54A A97U],-1.79
15,GGAUCUUCUCGAUCUAACAAAAAAGACAAAUCUGCCACAAAGCUUGAGAGCAGCAUCGGAUGCAGAGGCGGCAGCCUUCGGUGGCGCGAUAGCGCCAACGUUCUCAACUAUGACACGCAAAACGCGUGCUCCGUUGAAUGGAGUUUACCAUG [U53G U55A U148C],≤ -4.2
16,GGAUCUUCUCGAUCUAACAAAAAAGACAAAUCUGCCACAAAGCUUGAGAGCAUAUUCGGAUGCAGAGGCGGCAGCCUUAGGUGGCGUGAUAGCGCCAACGUUCUCAACUAUGACACGCAAAACGCGUGCUCCGUUGAAUGGAGCUUAUCGAG [C54A C79A C87U U144C A150G U151A],≤ -4.2
17,GGAUCUUCUCGAUCUAACAAAAAAGACAAAUCUGCCACAAAGCUUGAGAGCAUAUUCGGAUGCAGAGGAGGCAGCCUUCGGUGACGCAAUAGCGCCAACGUUCUCAACUAUGACACGCAAAACGCGUGCUCCGUUGAAUGGAGUUUAUCAUG [C54A C69A G84A G88A],≤ -4.2
18,GGAUCUUCUCGAUCUAACAAAAAAGACAAAUCUGCCACAAAGCUUGAGAGCAUAUUCGGAUGGAGAGGGGGCAGCGUUCGGCGGCGCGAUAGCGCCAACGUUCUCAACUAUGACACGCAAAACGCGUGCUGCGUUGAAUGGAGUUUAUCAUG [C54A C63G C69G C76G U82C C131G],≤ -4.2
19,GGAUCUUCUCGAUCUAACAAAAAAGACAAAUCUGCCACAAAGCUUGAGAGCAUAUUGGGAUGCAGAGGCGGCAGCCUUCGGUGGCGCGAGAGCGCCAACGUUCUCAACUAUGACACGCAAAACGCGUGCUCCGUUGAAAUGAGUUAAUCAUG [C54A C57G U90G U139A G140U U146A],≤ -4.2
